# Data published in the Human Domainome abundance scans (Beltran et al. 2025).
# ± gives the uncertainty stated by the source.
# B1: POU domain, class 2, transcription factor 2, residues 200 to 269; numbered along this chain, P09086 (parent)
# chain: LEELEQFARTFKQRRIKLGFTQGDVGLAMGKLYGNDFSQTTISRFEALNLSFKNMCKLKPLLEKWLNDAE
# Variants of: B1
# Assay: abundance fitness (aPCA) (normalised: wild type 0, dead -1); higher = more abundant; growth selection in yeast, the domain comes from the species named
# Conditions: Homo sapiens
row,Variant,abundance fitness
1,LEELEQFARTFKQRRIKQGFTQGDVGLAMGKLYGNDFSQTTISRFEALNLSFKNMCKLKPLLEKWLNDAE,-0.053 ± 0.084
2,LEELEQFARTFKQRRIKTGFTQGDVGLAMGKLYGNDFSQTTISRFEALNLSFKNMCKLKPLLEKWLNDAE,-0.227 ± 0.052
3,LEELEQFARTFKQRRIKFGFTQGDVGLAMGKLYGNDFSQTTISRFEALNLSFKNMCKLKPLLEKWLNDAE,-0.035 ± 0.082
4,LEELEQFARTFKQRRIKMGFTQGDVGLAMGKLYGNDFSQTTISRFEALNLSFKNMCKLKPLLEKWLNDAE,0.014 ± 0.064
5,LEELEQFARTFKQRRIKHGFTQGDVGLAMGKLYGNDFSQTTISRFEALNLSFKNMCKLKPLLEKWLNDAE,-0.049 ± 0.12
6,LEELEQFARTFKQRRIKIGFTQGDVGLAMGKLYGNDFSQTTISRFEALNLSFKNMCKLKPLLEKWLNDAE,-0.099 ± 0.061
7,LEELEQFARTFKQRRIKVGFTQGDVGLAMGKLYGNDFSQTTISRFEALNLSFKNMCKLKPLLEKWLNDAE,-0.234 ± 0.039
8,LEELEQFARTFKQRRIKPGFTQGDVGLAMGKLYGNDFSQTTISRFEALNLSFKNMCKLKPLLEKWLNDAE,-1.05 ± 0.13
9,LEELEQFARTFKQRRIKGGFTQGDVGLAMGKLYGNDFSQTTISRFEALNLSFKNMCKLKPLLEKWLNDAE,-0.159 ± 0.024
10,LEELEQFARTFKQRRIKNGFTQGDVGLAMGKLYGNDFSQTTISRFEALNLSFKNMCKLKPLLEKWLNDAE,-0.044 ± 0.094
11,LEELEQFARTFKQRRIKDGFTQGDVGLAMGKLYGNDFSQTTISRFEALNLSFKNMCKLKPLLEKWLNDAE,-0.763 ± 0.17
12,LEELEQFARTFKQRRIKKGFTQGDVGLAMGKLYGNDFSQTTISRFEALNLSFKNMCKLKPLLEKWLNDAE,-0.177 ± 0.045
13,LEELEQFARTFKQRRIKCGFTQGDVGLAMGKLYGNDFSQTTISRFEALNLSFKNMCKLKPLLEKWLNDAE,-0.213 ± 0.072
14,LEELEQFARTFKQRRIKSGFTQGDVGLAMGKLYGNDFSQTTISRFEALNLSFKNMCKLKPLLEKWLNDAE,-0.193 ± 0.051
15,LEELEQFARTFKQRRIKRGFTQGDVGLAMGKLYGNDFSQTTISRFEALNLSFKNMCKLKPLLEKWLNDAE,-0.233 ± 0.035
16,LEELEQFARTFKQRRIKYGFTQGDVGLAMGKLYGNDFSQTTISRFEALNLSFKNMCKLKPLLEKWLNDAE,-0.16 ± 0.067
17,LEELEQFARTFKQRRIKAGFTQGDVGLAMGKLYGNDFSQTTISRFEALNLSFKNMCKLKPLLEKWLNDAE,-0.025 ± 0.051
18,LEELEQFARTFKQRRIKWGFTQGDVGLAMGKLYGNDFSQTTISRFEALNLSFKNMCKLKPLLEKWLNDAE,-0.216 ± 0.04
19,LEELEQFARTFKQRRIKEGFTQGDVGLAMGKLYGNDFSQTTISRFEALNLSFKNMCKLKPLLEKWLNDAE,-0.253 ± 0.061
20,LEELEQFARTFKQRRIKLLFTQGDVGLAMGKLYGNDFSQTTISRFEALNLSFKNMCKLKPLLEKWLNDAE,-0.321 ± 0.043
21,LEELEQFARTFKQRRIKLVFTQGDVGLAMGKLYGNDFSQTTISRFEALNLSFKNMCKLKPLLEKWLNDAE,-0.986 ± 0.087
22,LEELEQFARTFKQRRIKLDFTQGDVGLAMGKLYGNDFSQTTISRFEALNLSFKNMCKLKPLLEKWLNDAE,-0.143 ± 0.11
23,LEELEQFARTFKQRRIKLKFTQGDVGLAMGKLYGNDFSQTTISRFEALNLSFKNMCKLKPLLEKWLNDAE,-0.092 ± 0.07
24,LEELEQFARTFKQRRIKLFFTQGDVGLAMGKLYGNDFSQTTISRFEALNLSFKNMCKLKPLLEKWLNDAE,-0.461 ± 0.2
25,LEELEQFARTFKQRRIKLIFTQGDVGLAMGKLYGNDFSQTTISRFEALNLSFKNMCKLKPLLEKWLNDAE,-0.793 ± 0.34
26,LEELEQFARTFKQRRIKLTFTQGDVGLAMGKLYGNDFSQTTISRFEALNLSFKNMCKLKPLLEKWLNDAE,-0.521 ± 0.077

row,Variant,abundance fitness
1,LEELEQFARTFKQRRIKLCFTQGDVGLAMGKLYGNDFSQTTISRFEALNLSFKNMCKLKPLLEKWLNDAE,-0.349 ± 0.085
2,LEELEQFARTFKQRRIKLPFTQGDVGLAMGKLYGNDFSQTTISRFEALNLSFKNMCKLKPLLEKWLNDAE,-0.98 ± 0.17
3,LEELEQFARTFKQRRIKLMFTQGDVGLAMGKLYGNDFSQTTISRFEALNLSFKNMCKLKPLLEKWLNDAE,-0.268 ± 0.075
4,LEELEQFARTFKQRRIKLNFTQGDVGLAMGKLYGNDFSQTTISRFEALNLSFKNMCKLKPLLEKWLNDAE,-0.022 ± 0.099
5,LEELEQFARTFKQRRIKLHFTQGDVGLAMGKLYGNDFSQTTISRFEALNLSFKNMCKLKPLLEKWLNDAE,-0.086 ± 0.07
6,LEELEQFARTFKQRRIKLWFTQGDVGLAMGKLYGNDFSQTTISRFEALNLSFKNMCKLKPLLEKWLNDAE,-0.926 ± 0.11
7,LEELEQFARTFKQRRIKLEFTQGDVGLAMGKLYGNDFSQTTISRFEALNLSFKNMCKLKPLLEKWLNDAE,-0.301 ± 0.057
8,LEELEQFARTFKQRRIKLQFTQGDVGLAMGKLYGNDFSQTTISRFEALNLSFKNMCKLKPLLEKWLNDAE,-0.498 ± 0.037
9,LEELEQFARTFKQRRIKLRFTQGDVGLAMGKLYGNDFSQTTISRFEALNLSFKNMCKLKPLLEKWLNDAE,-0.128 ± 0.029
10,LEELEQFARTFKQRRIKLSFTQGDVGLAMGKLYGNDFSQTTISRFEALNLSFKNMCKLKPLLEKWLNDAE,-0.118 ± 0.034
11,LEELEQFARTFKQRRIKLYFTQGDVGLAMGKLYGNDFSQTTISRFEALNLSFKNMCKLKPLLEKWLNDAE,-0.908 ± 0.25
12,LEELEQFARTFKQRRPKLGFTQGDVGLAMGKLYGNDFSQTTISRFEALNLSFKNMCKLKPLLEKWLNDAE,-0.895 ± 0.12
13,LEELEQFARTFKQRRVKLGFTQGDVGLAMGKLYGNDFSQTTISRFEALNLSFKNMCKLKPLLEKWLNDAE,-0.039 ± 0.036
14,LEELEQFARTFKQRRTKLGFTQGDVGLAMGKLYGNDFSQTTISRFEALNLSFKNMCKLKPLLEKWLNDAE,0.017 ± 0.074
15,LEELEQFARTFKQRRNKLGFTQGDVGLAMGKLYGNDFSQTTISRFEALNLSFKNMCKLKPLLEKWLNDAE,-0.003 ± 0.08
16,LEELEQFARTFKQRRSKLGFTQGDVGLAMGKLYGNDFSQTTISRFEALNLSFKNMCKLKPLLEKWLNDAE,-0.071 ± 0.044
17,LEELEQFARTFKQRRFKLGFTQGDVGLAMGKLYGNDFSQTTISRFEALNLSFKNMCKLKPLLEKWLNDAE,-0.141 ± 0.051
18,LEELEQFARTFKQRRRKLGFTQGDVGLAMGKLYGNDFSQTTISRFEALNLSFKNMCKLKPLLEKWLNDAE,-0.059 ± 0.027
19,LEELEQFARTFKQRRGKLGFTQGDVGLAMGKLYGNDFSQTTISRFEALNLSFKNMCKLKPLLEKWLNDAE,-0.095 ± 0.032
20,LEELEQFARTFKQRRHKLGFTQGDVGLAMGKLYGNDFSQTTISRFEALNLSFKNMCKLKPLLEKWLNDAE,-0.16 ± 0.083
21,LEELEQFARTFKQRRMKLGFTQGDVGLAMGKLYGNDFSQTTISRFEALNLSFKNMCKLKPLLEKWLNDAE,-0.06 ± 0.065
22,LEELEQFARTFKQRRQKLGFTQGDVGLAMGKLYGNDFSQTTISRFEALNLSFKNMCKLKPLLEKWLNDAE,-0.013 ± 0.061
23,LEELEQFARTFKQRRLKLGFTQGDVGLAMGKLYGNDFSQTTISRFEALNLSFKNMCKLKPLLEKWLNDAE,-0.042 ± 0.038
24,LEELEQFARTFKQRRDKLGFTQGDVGLAMGKLYGNDFSQTTISRFEALNLSFKNMCKLKPLLEKWLNDAE,-0.133 ± 0.061
25,LEELEQFARTFKQRREKLGFTQGDVGLAMGKLYGNDFSQTTISRFEALNLSFKNMCKLKPLLEKWLNDAE,0.048 ± 0.044
26,LEELEQFARTFKQRRYKLGFTQGDVGLAMGKLYGNDFSQTTISRFEALNLSFKNMCKLKPLLEKWLNDAE,-0.194 ± 0.076

row,Variant,abundance fitness
1,LEELEQFARTFKQRRKKLGFTQGDVGLAMGKLYGNDFSQTTISRFEALNLSFKNMCKLKPLLEKWLNDAE,-0.021 ± 0.034
2,LEELEQFARTFKQRRIALGFTQGDVGLAMGKLYGNDFSQTTISRFEALNLSFKNMCKLKPLLEKWLNDAE,-0.049 ± 0.039
3,LEELEQFARTFKQRRIELGFTQGDVGLAMGKLYGNDFSQTTISRFEALNLSFKNMCKLKPLLEKWLNDAE,-0.082 ± 0.056
4,LEELEQFARTFKQRRIVLGFTQGDVGLAMGKLYGNDFSQTTISRFEALNLSFKNMCKLKPLLEKWLNDAE,-0.063 ± 0.04
5,LEELEQFARTFKQRRIMLGFTQGDVGLAMGKLYGNDFSQTTISRFEALNLSFKNMCKLKPLLEKWLNDAE,0.001 ± 0.07
6,LEELEQFARTFKQRRIWLGFTQGDVGLAMGKLYGNDFSQTTISRFEALNLSFKNMCKLKPLLEKWLNDAE,-0.129 ± 0.052
7,LEELEQFARTFKQRRIGLGFTQGDVGLAMGKLYGNDFSQTTISRFEALNLSFKNMCKLKPLLEKWLNDAE,-0.027 ± 0.035
8,LEELEQFARTFKQRRICLGFTQGDVGLAMGKLYGNDFSQTTISRFEALNLSFKNMCKLKPLLEKWLNDAE,0.011 ± 0.073
9,LEELEQFARTFKQRRIFLGFTQGDVGLAMGKLYGNDFSQTTISRFEALNLSFKNMCKLKPLLEKWLNDAE,-0.096 ± 0.092
10,LEELEQFARTFKQRRILLGFTQGDVGLAMGKLYGNDFSQTTISRFEALNLSFKNMCKLKPLLEKWLNDAE,-0.006 ± 0.036
11,LEELEQFARTFKQRRIDLGFTQGDVGLAMGKLYGNDFSQTTISRFEALNLSFKNMCKLKPLLEKWLNDAE,0.016 ± 0.082
12,LEELEQFARTFKQRRISLGFTQGDVGLAMGKLYGNDFSQTTISRFEALNLSFKNMCKLKPLLEKWLNDAE,-0.009 ± 0.033
13,LEELEQFARTFKQRRIHLGFTQGDVGLAMGKLYGNDFSQTTISRFEALNLSFKNMCKLKPLLEKWLNDAE,-0.2 ± 0.086
14,LEELEQFARTFKQRRIRLGFTQGDVGLAMGKLYGNDFSQTTISRFEALNLSFKNMCKLKPLLEKWLNDAE,0.006 ± 0.039
15,LEELEQFARTFKQRRIYLGFTQGDVGLAMGKLYGNDFSQTTISRFEALNLSFKNMCKLKPLLEKWLNDAE,-0.121 ± 0.084
16,LEELEQFARTFKQRRINLGFTQGDVGLAMGKLYGNDFSQTTISRFEALNLSFKNMCKLKPLLEKWLNDAE,0.02 ± 0.081
17,LEELEQFARTFKQRRITLGFTQGDVGLAMGKLYGNDFSQTTISRFEALNLSFKNMCKLKPLLEKWLNDAE,-0.07 ± 0.063
18,LEELEQFARTFKQRRIQLGFTQGDVGLAMGKLYGNDFSQTTISRFEALNLSFKNMCKLKPLLEKWLNDAE,-0.096 ± 0.07
19,LEELEQFARTFKQRRIILGFTQGDVGLAMGKLYGNDFSQTTISRFEALNLSFKNMCKLKPLLEKWLNDAE,-0.072 ± 0.087
20,LEELEQFARTFKQRRIKLGKTQGDVGLAMGKLYGNDFSQTTISRFEALNLSFKNMCKLKPLLEKWLNDAE,0.005 ± 0.063
21,LEELEQFARTFKQRRIKLGITQGDVGLAMGKLYGNDFSQTTISRFEALNLSFKNMCKLKPLLEKWLNDAE,-0.101 ± 0.1
22,LEELEQFARTFKQRRIKLGLTQGDVGLAMGKLYGNDFSQTTISRFEALNLSFKNMCKLKPLLEKWLNDAE,-0.004 ± 0.031
23,LEELEQFARTFKQRRIKLGATQGDVGLAMGKLYGNDFSQTTISRFEALNLSFKNMCKLKPLLEKWLNDAE,-0.006 ± 0.043
24,LEELEQFARTFKQRRIKLGHTQGDVGLAMGKLYGNDFSQTTISRFEALNLSFKNMCKLKPLLEKWLNDAE,-0.035 ± 0.092
25,LEELEQFARTFKQRRIKLGDTQGDVGLAMGKLYGNDFSQTTISRFEALNLSFKNMCKLKPLLEKWLNDAE,-0.899 ± 0.16
